Measured values reported in publication PMC10603135, “Phosphorylation-dependent pseudokinase domain dimerization drives full-length MLKL oligomerization” (Nature Communications, 2023).
Blank lines part the entries; values can stand above or below the molecule they belong to.

Tests used:
[1] = biological target: MLKL (mixed lineage kinase domain-like) pseudokinase domain, 190-471 (UniProt Q8NB16); test: size-exclusion chromatography; details: reference: p-MLKL pseudokinase domain; sites T357,S358,T355,S360
[2] = biological target: full-length human MLKL (residues 2-471) T357E/S358E mutant (human) (UniProt Q8NB16); test: SEC; full-length MLKL (WT or T357E/S358E) co-expressed with RIPK3 kinase domain in Sf21, purified by GST on MLKL, tag cleaved, HiLoad Superdex 200 in SEC buffer; fractions on reducing SDS-PAGE
[3] = biological target: phosphorylated human MLKL (p-MLKL) pseudokinase domain (190-471) (human) (UniProt Q8NB16); test: SEC; purified pseudokinase domain on Superdex 200 in 20 mM HEPES pH 7.5, 200 mM NaCl, 5% v/v glycerol
[4] = biological target: phosphorylated human MLKL (p-MLKL) pseudokinase domain (190-471) (human) (UniProt Q8NB16); test: SEC-SAXS; p-MLKL pseudokinase domain, 40 uL of 7.2 mg/mL, inline Superdex 200 Increase 5/150, 0.2 M NaCl, 20 mM HEPES pH 7.5, 5% v/v glycerol, 283 K
[5] = biological target: unphosphorylated human MLKL pseudokinase domain (residues 190-471) (human) (UniProt Q8NB16); test: SEC-SAXS; MLKL pseudokinase domain:Mb27 complex pre-purified on Superdex 75, 50 uL of 5.6 mg/mL, inline Superdex 200 Increase 5/150, 0.2 M NaCl, 20 mM HEPES pH 7.5, 5% v/v glycerol, 283 K
[6] = biological target: the molecule itself; test: SEC; full-length MLKL expressed alone in Sf21, purified, HiLoad Superdex 200 in SEC buffer
[7] = biological target: the molecule itself; test: SEC; full-length MLKL (WT or T357E/S358E) co-expressed with RIPK3 kinase domain in Sf21, purified by GST on MLKL, tag cleaved, HiLoad Superdex 200 in SEC buffer; fractions on reducing SDS-PAGE

binding against the reference [1]: lost
Molecule: MLKL (mixed lineage kinase domain-like) pseudokinase domain, 190-471 (from UniProt Q8NB16) λ phosphatase treated p-MLKL

stoichiometry N (RIPK3 per MLKL (1:1)) [2]: 1
Molecule: human RIPK3 kinase domain (residues 1-316; C3S, C110A), co-expressed with full-length MLKL (from UniProt Q9Y572 1-316) (domain or fragment)

stoichiometry N [5]: 2
Molecule: unphosphorylated human MLKL pseudokinase domain (residues 190-471) (from UniProt Q8NB16 190-471) (domain or fragment)

The next lines start with the molecule.

Molecule: phosphorylated human MLKL (p-MLKL) pseudokinase domain (190-471) (from UniProt Q8NB16 190-471) (domain or fragment)
stoichiometry N [3]: 2
stoichiometry N [4]: 2

B1: recombinant full-length human MLKL (residues 2-471), wild-type (natural protein, UniProt Q8NB16 2-471, looked up)
chain: ENLKHIITLGQVIHKRCEEMKYCKKQCRRLGHRVLGLIKPLEMLQDQGKRSVPSEKLTTAMNRFKAALEEANGEIEKFSNRSNICRFLTASQDKILFKDVNRKLSDVWKELSLLLQVEQRMPVSPISQGASWAQEDQQDADEDRRAFQMLRRDNEKIEASLRRLEINMKEIKETLRQYLPPKCMQEIPQEQIKEIKKEQLSGSPWILLRENEVSTLYKGEYHRAPVAIKVFKKLQAGSIAIVRQTFNKEIKTMKKFESPNILRIFGICIDETVTPPQFSIVMEYCELGTLRELLDREKDLTLGKRMVLVLGAARGLYRLHHSEAPELHGKIRSSNFLVTQGYQVKLAGFELRKTQTSMSLGTTREKTDRVKSTAYLSPQELEDVFYQYDVKSEIYSFGIVLWEIATGDIPFQGCNSEKIRKLVAVKRQQEPLGEDCPSELREIIDECRAHDPSVRPSVDEILKKLSTFSK
notes: human MLKL, called full-length, residues 2-471; Expressed alone it elutes primarily as monomers with a smaller proportion of tetramers; with Mb27 all as tetramers; also called full-length MLKL; MLKL alone; source: Sf21 insect cells, expressed alone or co-expressed with Mb27, purified (glutathione resin, TEV cleavage, SEC); not shown: GST, N-terminal, cleaved
stoichiometry N [6]: 4

B2: full-length human p-MLKL tetramer (wild-type MLKL 2-471 co-expressed with RIPK3 kinase domain) (natural protein, UniProt Q8NB16 2-471, looked up)
chain: ENLKHIITLGQVIHKRCEEMKYCKKQCRRLGHRVLGLIKPLEMLQDQGKRSVPSEKLTTAMNRFKAALEEANGEIEKFSNRSNICRFLTASQDKILFKDVNRKLSDVWKELSLLLQVEQRMPVSPISQGASWAQEDQQDADEDRRAFQMLRRDNEKIEASLRRLEINMKEIKETLRQYLPPKCMQEIPQEQIKEIKKEQLSGSPWILLRENEVSTLYKGEYHRAPVAIKVFKKLQAGSIAIVRQTFNKEIKTMKKFESPNILRIFGICIDETVTPPQFSIVMEYCELGTLRELLDREKDLTLGKRMVLVLGAARGLYRLHHSEAPELHGKIRSSNFLVTQGYQVKLAGFELRKTQTSMSLGTTREKTDRVKSTAYLSPQELEDVFYQYDVKSEIYSFGIVLWEIATGDIPFQGCNSEKIRKLVAVKRQQEPLGEDCPSELREIIDECRAHDPSVRPSVDEILKKLSTFSK
modifications: phosphorylated by co-expressed RIPK3 (sites not printed for the full-length protein); disulfide-linked via C184
notes: human MLKL, called full-length, residues 2-471; The purified tetramer carries sub-stoichiometric RIPK3 kinase domain; also called wild-type p-MLKL tetramer; MLKL (WT):RIPK3; source: Sf21 insect cells, co-expressed with RIPK3 kinase domain, purified (glutathione resin, TEV cleavage, SEC); not shown: GST, N-terminal, cleaved
stoichiometry N [7]: 4
